Publication PMC8485325, “Penetrating the Blood-Brain Barrier with New Peptide–Porphyrin Conjugates Having anti-HIV Activity” (Bioconjugate Chemistry, 2021)
Ends that are not written are not given here.

Tests used:
bEnd.3 cell monolayers = assay: In vitro BBB translocation assay (bEnd.3 transwell model)
Excerpt: Assessment of PPC efficacy in BBB translocation was done in a transwell setup (Figure 4A) using bEnd.3 cell monolayers.[44] The bEnd.3 in vitro BBB model consists of a monolayer of cells expressing a range of essential BBB transporters, also bearing the low permeability characteristic of the BBB, suitable for this study.[44]−[46]
Figure 4 PPCs translocation across a bEnd.3 in vitro BBB model. (A) bEnd.3 in vitro BBB model transwell system. The insert, or apex, corresponds to the blood side, while the base (bottom chamber) corresponds to the brain side. (B) After formation of a monolayer, 10 μM of each conjugate was added to the apical side of the tissue culture inserts. After incubation for 24 h, samples from the basolateral side were collected, and the percentage of translocation of each conjugate (black) was calculated. FD4 permeability (gray) was measured to determine monolayer integrity post-PPCs translocation.
An in vitro BBB model consisting of endothelial cells growing on the apical side of a porous membrane was used.[46] bEnd.3 cells (ATTCC-CRL2299) were cultured as a monolayer on T-flasks in DMEM supplemented with 10% fetal bovine serum (FBS), 1% penicillin/streptomycin. Cells were grown in a humidified atmosphere of 5% CO2 at 37 °C (MCO-18AIC (UV), Sanyo, Japan) with the medium changed every other day. Cells were allowed to grow until confluence in a culture T-flask, and then carefully harvested with trypsin-EDTA and seeded (3500 cells/well) onto fibronectin-coated tissue culture 24-well inserts (transparent polyester membrane with 1.0 μm pores) (BD Falcon, USA). The medium was changed every other day for 10 days, after which cells were washed twice with 1× PBS and once with DMEM medium without phenol red. Next, conjugates diluted in DMEM without phenol red to a final concentration of 10 μM were added to the apical side of the in vitro BBB model (Figure 4A). Experiments were performed on different days using independently grown cell cultures.
The translocation of conjugates was determined by fluorescence intensity (λexc = 380 nm and λem = 625 nm for MP conjugates, and λexc = 380 nm and λem = 675 nm for PP conjugates). P3-CF and P5-CF, peptides labeled with 5(6)-Carboxyfluorescein (CF), were used as positive translocation controls (λexc = 492 nm and λem = 517 nm). After 24 h incubation, samples from the apical and basolateral side were collected and analyzed. Fluorescence was measured using a Varioskan Lux plate reader (Thermo Scientific, MA, USA). The percentage (%) of translocation was calculated using the following equation: [drawing 1] 1 where Fi is the recovered fluorescence intensity, Fcells is the recovered fluorescence intensity from cells without the conjugate, and Fconjugate is the fluorescence intensity of total peptide initially added to the transwell apical side.

human erythrocytes = assay: Hemolysis assay; assay type: cell-based
Experimental: Plates were incubated for 1 h at 37 °C with 100 rpm stirring, then centrifuged for 5 min at 4000 rpm, 4 °C, and supernatants were transferred to a 96-well flat-bottom polystyrene plate (Corning). Hemolysis was assessed by hemoglobin (Hb) release, measured by absorbance at 415 nm in a Varioskan LUXTM microplate reader (Thermo Fisher Scientific, Inc.). As porphyrin and Hb spectra are partially overlapping, to exclude porphyrin interference in Hb quantification a blank reading of each PPC (no hRBCs, TN buffer +1% DMSO) was subtracted from each measurement. TN buffer (+1% DMSO, no conjugate) and hRBCs with 1% Triton X-100 were used as negative and positive controls, respectively. Hemolysis (%) was determined using the following equation: [drawing 6] 6 where Abstreated is the absorbance of hRBC treated with the conjugates, Absconjugate is the absorbance from each conjugate concentration without hRBCs, AbsTriton is the absorbance of Triton X-100 treated hRBCs, and Absbuffer is the absorbance of TN buffer alone. HC50 values were determined by GraphPad Prism 8 software using a log(inhibitor) vs normalized response (variable slope). Experiments were performed using 3 different blood donors.

Row | Substance | BBB translocation (in words) (bEnd.3 cell monolayers) | Hemolytic activity (in words) (human erythrocytes)
1 | MP-P5: mesoporphyrin IX coupled to the N-terminal amino group of peptide P5 (SGTQEEY-amide) ({mesoporphyrin IX}-SGTQEEY-NH2) | able to effectively pass the BBB | totally lacked hemolytic activity
2 | P4-MP: mesoporphyrin IX coupled to the C-terminal Lys side chain of peptide P4 (AGILKRWK-amide) (AGILKRWK(mesoporphyrin IX)-NH2) | able to effectively pass the BBB | totally lacked hemolytic activity
